In patent US20200325230A1 (CURIA IP, published 2020) one finds EC50, IC50 and Kd data, which are given here for five molecules.

The target of one test is T1, cynomolgus BTLA(ECD)-HIS (cynomolgus, UniProt A0A2K5W7M7 31-157).
T1 construct: extracellular domain; also called Cyno BTLA; not shown: HIS tag
Put plainly: ELISA, coated BTLA(ECD)-HIS, chemiluminescence (RLU). A general note: An ELISA detects its analyte on a solid surface through an enzyme-linked reagent.

For another test, the target named is T2, human BTLA(ECD)-HIS (human, UniProt Q7Z6A9 31-157).
T2 construct: extracellular domain; also called recombinant BTLA; not shown: HIS tag
Described as above.

The target of the next test is T3, human BTLA-human Fc (human, UniProt Q7Z6A9 31-157).
T3 construct: not shown: human Fc
Put plainly: ELISA, inhibition of BTLA-human Fc binding to coated human HVEM-ratIgG2a.

Test [1] addresses T4, cynomolgus BTLA expressed on HEK-293 cells (cynomolgus, UniProt A0A2K5W7M7 31-289).
T4 construct: whole, on cells; also called Cyno BTLA
Put plainly: flow cytometry on HEK 293 cells expressing BTLA (MFI). On the technique in general: In flow cytometry, cells or beads pass a laser one at a time.

The target in test [2] is T5, human BTLA expressed on HEK-293 cells (human, UniProt Q7Z6A9 31-289).
T5 construct: whole, on cells
The description is as above.

Another test concerns the target T6, cynoBTLA-human Fc (cynomolgus, UniProt A0A2K5W7M7 31-157).
T6 construct: also called cynomolgus BTLA; not shown: human Fc
Description: ELISA, inhibition of cynoBTLA-human Fc binding to coated human HVEM-ratIgG2a.

A further test concerns the target recombinant human BTLA (human, UniProt Q7Z6A9 31-157, limits assumed). Put plainly: Bio-Layer Interferometry (Octet), antibody captured by anti-human-Fc (AHC), BTLA in solution, 1:1 fit. For orientation: Biolayer interferometry detects binding as a change in optical thickness at a sensor tip.
The target of test [3] is T7, cynomolgus BTLA (analyte of Bio-Layer Interferometry) (cynomolgus, UniProt A0A2K5W7M7 31-157).
T7 construct: also called Cyno BTLA
The description is as above.

T4 sequence (A0A2K5W7M7 entry or part of it): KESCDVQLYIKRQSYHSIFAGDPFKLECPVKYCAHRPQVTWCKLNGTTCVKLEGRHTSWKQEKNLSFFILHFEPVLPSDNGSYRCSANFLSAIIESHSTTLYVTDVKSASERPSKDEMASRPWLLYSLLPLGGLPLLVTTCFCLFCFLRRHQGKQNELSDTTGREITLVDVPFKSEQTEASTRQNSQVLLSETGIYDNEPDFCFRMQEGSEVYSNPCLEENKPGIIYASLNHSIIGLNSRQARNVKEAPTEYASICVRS
T1 sequence (A0A2K5W7M7 entry or part of it): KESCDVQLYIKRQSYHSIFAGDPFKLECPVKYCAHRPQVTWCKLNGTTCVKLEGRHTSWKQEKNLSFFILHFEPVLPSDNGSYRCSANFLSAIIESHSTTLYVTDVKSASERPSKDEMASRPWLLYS

B1: anti-BTLA antibody 16-I20A (antibody, V domains shown)
VH: QVQLQESGPGLVKPSETLSLTCTVSGGSISYYYWSWIRQPPGTGLEWIGYIYYSGSTKYNPSLKRRVTISVDTSKNQFSLKLSSVTAADTAVYYCARIRGDSYGWDFDYWGQGTLVTVSS
VL: EIVMTQSPATLSLSPGERATLSCRASQSISNNYLFWYQQKPGQAPRLLIYGASTRATGIPARFSGSGSGTDFTLTISSLQPEDFAVYYCQQDYNFPLTFGGGTKVEIK
notes: also called 16420A
As to B1, the EC50 with cynomolgus BTLA(ECD)-HIS stood at 0.8 nM; with human BTLA(ECD)-HIS, 0.7 nM; in test [1], 6.9 nM; in test [2], 5 nM. The 50% inhibitory concentration (IC50) was determined as 2.9 nM in the test with human BTLA-human Fc and 2.5 nM in the test with cynoBTLA-human Fc. Also, the figures for the Kd (in the test with recombinant human BTLA; in test [3]) were 14.9 nM and 16.6 nM, respectively.

B2: anti-BTLA antibody 8-M23A (antibody, V domains shown)
VH: QVQLQESGPGLVKPSETLSLTCTVSGGSISSYYWSWIRQPPGKGLEWIGYIYYSGSTNYNPSLKSRITISVDTSKNQFSLKLSSVTAADTAVYYCARVILYSSGWSFDYWGQGTLVTVSS
VL: EIVMTQSPATLSLSPGERATLSCRASQSVSSSYLSWYQQKPGQAPRLLIYGASTRATGIPARFSGSGSGTDFTLTISSLQPEDFAVYYCQQDYNLPLTFGGGTKVEIK
B2 returned an EC50 with human BTLA(ECD)-HIS of 0.8 nM.

B3: anti-BTLA antibody 16-H16A (antibody, V domains shown)
VH: QLQLQESGPGLVKPSETLSLTCTVSGDSISSSGYYWGWIRQPPGKGLEWIGSIYYSGSTHYNPSLKSRVTISVDSSKSQFSLKLSSVTAADTAVYCCARHKVDSSGWPLDYWGQGTLVTVSS
VL: EIVMTQSPATLSLSPGERATLSCRASQSISSSCLSWYQQKPGQAPRLLIYDTSTRATGIPARFSGSGSGTDFTLTISSLQPEDFAVYYCQQDYNLPLTFGGGTKVEIK
As to B3, the EC50 stood at 1.9 nM with cynomolgus BTLA(ECD)-HIS, 0.9 nM in the test with human BTLA(ECD)-HIS, 4.4 nM in test [1] and 4.7 nM in test [2]. Further, the IC50 with human BTLA-human Fc amounted to 3 nM; in the test with cynoBTLA-human Fc, 2.3 nM. Also, the Kd in the test with recombinant human BTLA stood at 13.9 nM; in test [3], 4.1 nM.

B4: anti-BTLA antibody 12-I8A (antibody, V domains shown)
VH: QVQLVESGGGVVQPGRSLRLSCAASGFTFSNYGMHWVRQAPGKGLEWVAVIWYNGSNKYYADSVKGRFTISRDNSKNTLYLQMNSLRAEDTAVYYCARDDVVRYFDWPLDYWGQGTLVTVSS
VL: AIQMTQSPSSLSASVGDRVTITCRASQGIRNDLGWYQQKPGKAPKVLIYAASSLQSGVPSRFSGSGSGTDFTLTISSLQPEDFATYYCLQDYNYPWTFGQGTKVEIK
notes: also called 12-IBA
Take B4: the EC50 in the test with cynomolgus BTLA(ECD)-HIS was determined as 4.2 nM; with human BTLA(ECD)-HIS, 1.4 nM; in test [1], 5 nM; in test [2], 2.9 nM. Also, the half-maximal inhibitory concentration (IC50) in the test with human BTLA-human Fc came out at 4.4 nM; with cynoBTLA-human Fc it was 4.6 nM. The Kd with recombinant human BTLA came to 25.2 nM; in test [3], 23.2 nM.

B5: anti-BTLA antibody 13-F7A (antibody, V domains shown)
VH: EVQLLESGGGLVQPGGSLRLSCAASGFTSSSYGMSWVRQAPGKGLEWVSGISGSGGGTYYADSVKGRFTISRDNSKNTLYLQMNSLRAEDTAVYYCAKGDYYGSGSYPLFDYWGQGTLVTVSS
VL: AIQLTQSPSSLSASVGDRVTITCRASQDISSALAWYQQKPGKAPKLLISDASSLESGVPSRFSGSGSGTDFTLTISSLQPEDFATFYCQQFNNYPPTFGPGTKVDIK
On to B5, for which the EC50 in the test with cynomolgus BTLA(ECD)-HIS is 1 nM; in the test with human BTLA(ECD)-HIS it was 1 nM; in test [1] it was 2.6 nM; in test [2], 1.5 nM. Also, the concentration for half-maximal inhibition (IC50) turned out to be 2.5 nM with human BTLA-human Fc and 1.8 nM with cynoBTLA-human Fc. For the same molecule, the Kd with recombinant human BTLA came to 5.4 nM; in test [3] it was 3.9 nM.

The EC50 is the concentration giving half of the maximal effect. By IC50 is commonly meant the concentration at which inhibition is half-maximal. Read a high IC50 as weaker potency in that assay. In general, Kd refers to the constant that tells how readily two partners part at equilibrium.
